Source: PMC4536467, “A high affinity RIM-binding protein/Aplip1 interaction prevents the formation of ectopic axonal active zones” (eLife, 2015)

Key:
RBP SH3-II = experiment: Semi-quantitative liquid Y2H ß-galactosidase assay, bait RBP SH3-II; assay type: cell-based, Drosophila; settings: n = 3 independent experiments, mean ± SEM
Description: (§1) The plasmids (pP6 and pB27) encode tryptophan (Trp) and leucine (Leu) biosynthesis genes, and were successfully double transformed into the TATA strain lacking genes for synthesis of Leu and Trp which can be followed by positive growth in LT media. Reporter genes for the protein–protein interaction are HIS3, which can be later detected by growth on plates lacking histidin, as well as lacZ which allows the detection of interaction in a more quantitative fashion with a β-galactosidase assay. To transform the yeast cells with the pP6 and pB27 vector respectively the LiAc/single strand DNA/PEG technique was used ([Gietz and Schiestl, 2007]).
(§2) The assay was carried out as described in JH Miller ‘Experiments in Molecular Genetics’ 1972 Cold Spring Harbor Laboratories pages 352–355.
(§3) The RBP constructs for Y2H were cloned into pB27 bait vector. The RBP cDNA clone AT04807 (Drosophila Genomics Resource Centre) was used as a template for PCR reaction. For amplification the following primers were used: […]

RBP SH3-III = experiment: Semi-quantitative liquid Y2H ß-galactosidase assay, bait RBP SH3-III; assay type: cell-based, Drosophila; settings: n = 3 independent experiments, mean ± SEM
Description: as §1, §2, §3

RBP SH3-II+III = experiment: Isothermal titration calorimetry (ITC), peptide titrated into tandem RBP SH3-II+III; assay type: binding, Drosophila; settings: second and third SH3 domain of RBP
Description: ITC experiments were performed at 25°C on an iTC200 microcalorimeter (Malvern Instruments Ltd., United Kingdom). The same peptides were employed as used for the co-crystallization experiments (see below). Lyophilized peptides were resuspended in the final buffer of the proteins (10 mM Tris-HCl pH 7.4, 100 mM NaCl). RBP SH3-II and SH3-III were both provided at a concentration of 150 µM, RBP SH3-II+III was provided at 78 µM. The proteins were titrated with 16 injections of 2.5 µl of either Aplip1, Cac, RIM1 or RIM2 peptide at a concentration of 2 mM with 2-min intervals. The released heat was obtained by integrating the calorimetric output curves. Binding parameters were calculated using the Origin5 software using the ‘One Set of Sites’ curve fitting model provided by the software.
For crystallization experiment the RBP SH3-II was concentrated to 56 mg/ml and the RBP SH3-III to 62 mg/ml. The same peptides as for ITC measurements were used and synthesized at the Leibniz Institute for Molecular Pharmacology with N-terminal acetylation and C-terminal amidation. The unsolubilized peptides were mixed in a fivefold molar excess with the protein solution and incubated for 2 hr on ice. Insoluble peptide was removed by centrifugation (16,000×g for 1 min) prior to crystallization experiments. All crystallization experiments were carried out at 291 K in a sitting drop setup. […]

RBP SH3-I = experiment: Isothermal titration calorimetry (ITC), peptide titrated into RBP SH3-I; assay type: binding, Drosophila; settings: 25°C, result in words
[1] = test system: RBP SH3-III* (Prolin1500 → Leucin); experiment: Semi-quantitative liquid Y2H ß-galactosidase assay, bait point-mutated RBP SH3-III*; assay type: cell-based, Drosophila; settings: n = 3 independent experiments, mean ± SEM
Description: as §1, §2
(§4) By applying the site-directed mutagenesis strategy, different constructs were designed for RBP using mutated primers. Mutagenesis was carried out by Dr Martin Meixner (SMB. GmbH, Germany,). The following point mutations were used:
RBP SH3-III*: Prolin1500 → Leucin

[2] = test system: RBP SH3-II* (Prolin1373 → Leucin); experiment: Semi-quantitative liquid Y2H ß-galactosidase assay, bait point-mutated RBP SH3-II*; assay type: cell-based, Drosophila; settings: n = 3 independent experiments, mean ± SEM
Description: as §1, §2, §4
RBP SH3-II*: Prolin1373 → Leucin

[3] = molecular target: T1, RBP SH3-II (residue 1318–1382; ITC and crystallisation construct) (D. melanogaster); experiment: ITC
T1 chain: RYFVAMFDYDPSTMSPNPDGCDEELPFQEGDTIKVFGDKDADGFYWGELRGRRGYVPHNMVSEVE

[4] = molecular target: T2, RBP SH3-III (ITC construct) (D. melanogaster); experiment: ITC
T2 chain: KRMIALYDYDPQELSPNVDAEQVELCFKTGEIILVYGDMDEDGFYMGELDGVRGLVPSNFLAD

[5] = molecular target: T3, RBP SH3-II+III (ITC construct) (D. melanogaster); experiment: ITC
T3 chain: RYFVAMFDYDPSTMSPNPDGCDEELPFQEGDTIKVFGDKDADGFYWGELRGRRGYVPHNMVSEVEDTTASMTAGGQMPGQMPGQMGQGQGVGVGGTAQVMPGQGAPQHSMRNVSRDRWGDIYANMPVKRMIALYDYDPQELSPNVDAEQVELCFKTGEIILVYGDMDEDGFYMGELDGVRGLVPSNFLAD

[6] = molecular target: T4, RBP SH3-II (residue 1318–1382; ITC and crystallisation construct) (D. melanogaster); experiment: ITC; 25°C, iTC200; RBP SH3-II and SH3-III at 150 µM, SH3-II+III at 78 µM in the cell, titrated with 16 injections of 2.5 µl peptide at 2 mM; 10 mM Tris-HCl pH 7.4, 100 mM NaCl; 'One Set of Sites' model; settings: both partners purified
T4 construct: pGEX-6P1, EcoRI/XhoI; also called RBP-BP SH3-II; source: E. coli BL21-CodonPlus-RIL, purified (glutathione sepharose, PreScission cleavage, Superdex 75); not shown: GST, N-terminal, cleaved
T4 chain: T1 chain

[7] = molecular target: T5, RBP SH3-III (ITC construct) (D. melanogaster); experiment: as above; settings: both partners purified
T5 construct: it may be the same protein; also called RBP-BP SH3-III
T5 chain: T2 chain

[8] = molecular target: T6, RBP SH3-II+III (ITC construct) (D. melanogaster); experiment: as above; settings: both partners purified
T6 construct: Cloning and purification of this construct are not described; also called tandem SH3-II+III; RBP-BP SH3-II+SH3-III
T6 chain: T3 chain

[9] = molecular target: T4, RBP SH3-II (residue 1318–1382; ITC and …); experiment: crystal structure; co-crystallisation of the SH3 domain with a fivefold molar excess of peptide, sitting drop, 291 K; settings: both partners purified
[10] = molecular target: T7, RBP SH3-III (residue 1441–1507; crystallisation construct) (D. melanogaster); experiment: as above; settings: both partners purified
T7 construct: pGEX-6P1, EcoRI/XhoI; linker residues may remain at the N-terminus after PreScission cleavage; source: E. coli BL21-CodonPlus-RIL, purified (glutathione sepharose, PreScission cleavage, Superdex 75); not shown: GST, N-terminal, cleaved
T7 chain: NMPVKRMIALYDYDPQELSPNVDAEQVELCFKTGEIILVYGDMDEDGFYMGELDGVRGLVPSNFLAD

LLGGSNFGSLADEFRNGGGGGIPPAVRSGQQRSFLSLKCGYLMDEDSSPDSERMQSLGDVDSGHSTAHSPNDFKSMSPQITSPVSQSPFPPPFGGVPFGQ [Aplip1-PxxP2, Y2H prey fragment of Aplip1 (100 AA) containing only the second PxxP motif]
mean ß-Gal4 units: RBP SH3-II (RBP SH3-II): 0.2 ± 0.0 ß-Gal4 units | mean ß-Gal4 units: RBP SH3-III (RBP SH3-III): 0.2 ± 0.1 ß-Gal4 units

EDDELGDGLKVTLSSDGSLDTNDSFNSHRHHPLNHQDAIGGFLGMDTSGLGGNSAPVTIGASTDLLAPNTAATRRRRKLAEIAKNKKSSILHLLGGSNFGSLADEFRNGGGGGIPPAVRSGQQRSFLSLKCGYLMDEDS [Aplip1-AxxA1, Y2H prey fragment of Aplip1 (139 AA) with mutated first PxxP motif (P156 → A; P159 → A)]
mean ß-Gal4 units: RBP SH3-II (RBP SH3-II): 0.1 ± 0.1 ß-Gal4 units | mean ß-Gal4 units: RBP SH3-III (RBP SH3-III): 0.2 ± 0.0 ß-Gal4 units

Ac-TRRRRKLPEIPKNKK-NH2 [Aplip1]
affinity relative to RBP binding of its synaptic ligands (Ca2+ channels/RIM) (RBP SH3-II+III): more than 10 fold | binding to RBP SH3-I (RBP SH3-I): could not detect any binding

EDDELGDGLKVTLSSDGSLDTNDSFNSHRHHPLNHQDAIGGFLGMDTSGLGGNSAPVTIGASTDLLAPNTAATRRRRKLPEIPKNKKSSILHLLGGSNFGSLADEFRNGGGGGIPPAVRSGQQRSFLSLKCGYLMDEDS [Aplip1-PxxP1, Y2H prey fragment of Aplip1 (139 AA) containing only the first PxxP motif]
mean ß-Gal4 units: RBP SH3-II (RBP SH3-II): 24.3 ± 6.6 ß-Gal4 units | mean ß-Gal4 units: RBP SH3-III (RBP SH3-III): 29.1 ± 7.4 ß-Gal4 units | mean ß-Gal4 units: RBP SH3-III* [1]: 0.1 ± 0.0 ß-Gal4 units | mean ß-Gal4 units: RBP SH3-II* [2]: 0.1 ± 0.0 ß-Gal4 units

B1: RIM2 peptide (GRQLPQLPPKGT) (peptide)
peptide: Ac-GRQLPQLPPKGT-NH2
notes: PxxP peptide named RIM2; May be a mammalian RIM2 motif or one of two motifs of Drosophila RIM; source: synthetic peptide (Leibniz Institute for Molecular Pharmacology)
Kd [3]: 20 µM | Kd [4]: 12.5 µM | Kd [5]: 35.7 µM | binding result [6]: binds | binding result [7]: binds

B2: Aplip-PxxP1 peptide (149-TRRRRKLPEIPKNKK-163) (peptide)
peptide: Ac-TRRRRKLPEIPKNKK-NH2
notes: Aplip1, D. melanogaster, residues 149-163 with the first PxxP motif; also called Aplip1 peptide; Aplip1-PxxP1 peptide; source: synthetic peptide (Leibniz Institute for Molecular Pharmacology)
Kd [3]: 4.1 µM | Kd [4]: 1.4 µM | Kd [5]: 0.54 µM | binding result [8]: binds | binding result [7]: binds | binding result [9]: binds

B3: RIM1 peptide (GRQLPQVPVRSG) (peptide)
peptide: Ac-GRQLPQVPVRSG-NH2
notes: PxxP peptide named RIM1; May be a mammalian RIM1 motif or one of two motifs of Drosophila RIM; source: synthetic peptide (Leibniz Institute for Molecular Pharmacology)
Kd [3]: 10.4 µM | Kd [4]: 8.4 µM | Kd [5]: 16 µM | binding result [6]: binds | binding result [7]: binds

B4: Cac peptide (1685-IGRRLPPTPSKPSTL-1699) (peptide)
peptide: Ac-IGRRLPPTPSKPSTL-NH2
notes: also called Cacophony peptide; Cac-derived peptide; source: synthetic peptide (Leibniz Institute for Molecular Pharmacology)
Kd [3]: 20.2 µM | Kd [4]: 17.3 µM | Kd [5]: 31.3 µM | binding result [7]: binds | binding result [9]: binds | binding result [10]: binds
